Measurements as given in article PMC10630337, “Transcriptional reprogramming by mutated IRF4 in lymphoma”.

T1: IRF4-C99R DBD;JUNB DBD;BATF DBD (human;human;human, UniProt Q15306;P17275;Q16520 20-139;269-329;28-87, C99R||)
T1 sequence 1: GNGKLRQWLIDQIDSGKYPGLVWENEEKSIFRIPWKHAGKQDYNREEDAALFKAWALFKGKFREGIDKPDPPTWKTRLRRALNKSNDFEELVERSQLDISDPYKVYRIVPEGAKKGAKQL
T1 sequence 2: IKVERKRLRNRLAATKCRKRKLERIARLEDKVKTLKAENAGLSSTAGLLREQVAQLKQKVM
T1 sequence 3: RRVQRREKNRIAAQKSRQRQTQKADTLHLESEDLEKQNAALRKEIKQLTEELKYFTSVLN

T2: IRF4-WT DBD;JUNB DBD;BATF DBD (human;human;human, UniProt Q15306;P17275;Q16520 20-139;269-329;28-87, ||)
T2 sequence 1: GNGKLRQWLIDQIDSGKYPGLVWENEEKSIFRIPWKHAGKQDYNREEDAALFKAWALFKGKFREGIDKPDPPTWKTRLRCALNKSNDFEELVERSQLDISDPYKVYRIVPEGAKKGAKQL
T2 sequence 2: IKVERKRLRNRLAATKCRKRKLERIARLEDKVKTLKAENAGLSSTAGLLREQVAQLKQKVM
T2 sequence 3: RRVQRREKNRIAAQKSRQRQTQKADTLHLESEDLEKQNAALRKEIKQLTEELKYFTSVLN


How the values were obtained:
[1] = target: T1, IRF4-C99R DBD;JUNB DBD;BATF DBD; assay: EMSA; short or long probe not certain; EMSA: 10 mM HEPES pH 7.9, 70 mM KCl, 5 mM DTT, 1 mM EDTA, 2.5 mM MgCl2, 4% Ficoll, 0.5 mg/ml BSA, 0.1 ug/ml poly(dI-dC); 3-5 ug nuclear extract; temperature not stated; conditions: protein: recombinant;recombinant;recombinant; copies: 1;1;1; label: 32P-dCTP Klenow end label; 5' overhang 4 nt before Klenow labeling
[2] = target: T2, IRF4-WT DBD;JUNB DBD;BATF DBD; assay: as above; conditions: protein: recombinant;recombinant;recombinant; copies: 1;1;1; label: 32P-dCTP Klenow end label; 5' overhang 4 nt before Klenow labeling
[3] = target: T1, IRF4-C99R DBD;JUNB DBD;BATF DBD; assay: EMSA; IRF4 composite complex abolished; EMSA: 10 mM HEPES pH 7.9, 70 mM KCl, 5 mM DTT, 1 mM EDTA, 2.5 mM MgCl2, 4% Ficoll, 0.5 mg/ml BSA, 0.1 ug/ml poly(dI-dC); 3-5 ug nuclear extract; temperature not stated; conditions: protein: recombinant;recombinant;recombinant; copies: 1;1;1; label: 32P-dCTP Klenow end label; 5' overhang 2 nt before Klenow labeling

Row | Binder | binding result [1] | binding result [2] | binding result [3]
1 | AICE2 (Bcl11b) (dsDNA) DNA 1: AGCTTAGTGCAGAAATGAGTCAGAGATCAAAGAAG DNA 2: AGCTCTTCTTTGATCTCTGACTCATTTCTGCACTA | binds | – | –
2 | AICE2FLIP (AICE2 5'TTTC) (dsDNA) DNA 1: AGCTTAGTGCATTTCTGAGTCAGAGATCAAAGAAG DNA 2: AGCTCTTCTTTGATCTCTGACTCAGAAATGCACTA | binds | no binding | –
3 | AICE2 (Bcl11b) short, IRF motif tAcA (dsDNA) DNA 1: AGTGCATACATGAGTCAGAGATC DNA 2: AGGATCTCTGACTCATGTATGCA | – | – | no binding
4 | AICE2FLIP short IRFmut (dsDNA) DNA 1: AGTGCATGTATGAGTCAGAGATC DNA 2: AGGATCTCTGACTCATACATGCA | – | – | no binding
